Assay results as given in patent CN117567625A (INST MED BIOTECHNOLOGY CAMS, dated 2024).

Target: T1, Claudin18.2 on 人胃癌NUGC4细胞 (human, UniProt P56856-2 1-261)
T1 construct: whole, on cells
T1 sequence (looked up): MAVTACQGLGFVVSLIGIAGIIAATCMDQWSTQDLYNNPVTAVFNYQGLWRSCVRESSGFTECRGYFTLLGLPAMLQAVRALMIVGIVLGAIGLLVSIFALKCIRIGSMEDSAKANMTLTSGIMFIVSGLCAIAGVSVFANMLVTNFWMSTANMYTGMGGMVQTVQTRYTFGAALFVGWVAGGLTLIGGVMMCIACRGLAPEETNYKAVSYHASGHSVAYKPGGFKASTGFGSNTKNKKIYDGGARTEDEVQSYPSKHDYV
Assay: flow cytometry on NUGC4 cells, anti-mouse IgG Fc-FITC

B1: 抗Claudin18.2小鼠单克隆抗体m1D6 (antibody, V domains shown)
VH: QVQLQQPGPELVMPGASVKLSCKASGYTFTSYRMHWVKQRPGQGLEWIGEIDPSNSYTNYNQNFRGRSTLTVDKSSSTAYMQLSSLTSGDSAVYYCARLGRGNTLGYWGQGTSVTVSS
VL: DIVMTQSPSSLTVTAGEKVTVGCKSSQSLLNSGNQKNYLTWYQQKPGQPPKLLIYWASTRESGVPDRFTGSGSGTDFTLTIRSVQAEDLAVYYCQNGYSYPFTFGSGTKLEIKR
notes: Both printed entries appear to start with a leader peptide ahead of the variable region; For in vivo imaging the antibody was labelled with Dylight680
  binding result: binds
